Laboratory results from paper PMC8780415.

Assays:
Experiment in all cases: flow cytometry on cells
[1] = target: SR-B1-GFP fusion protein (scavenger receptor class B type 1) (UniProt Q8WTV0)
[2] = target: NTCP-GFP fusion protein (sodium taurocholate cotransporting polypeptide) (UniProt Q14973)
[3] = target: Biotinylated Myr47 (myristoylated pre-S1 peptide); settings: HEK293T cells transiently transfected; GFP+ gate; 10,000 cells; triplicate assays; mean and standard error; Myr47 binding examined at 4 °C; parent: est. 13; read off a plot

UniProt Q8WTV0, sequence (Q8WTV0 whole entry, the tested form may be a part): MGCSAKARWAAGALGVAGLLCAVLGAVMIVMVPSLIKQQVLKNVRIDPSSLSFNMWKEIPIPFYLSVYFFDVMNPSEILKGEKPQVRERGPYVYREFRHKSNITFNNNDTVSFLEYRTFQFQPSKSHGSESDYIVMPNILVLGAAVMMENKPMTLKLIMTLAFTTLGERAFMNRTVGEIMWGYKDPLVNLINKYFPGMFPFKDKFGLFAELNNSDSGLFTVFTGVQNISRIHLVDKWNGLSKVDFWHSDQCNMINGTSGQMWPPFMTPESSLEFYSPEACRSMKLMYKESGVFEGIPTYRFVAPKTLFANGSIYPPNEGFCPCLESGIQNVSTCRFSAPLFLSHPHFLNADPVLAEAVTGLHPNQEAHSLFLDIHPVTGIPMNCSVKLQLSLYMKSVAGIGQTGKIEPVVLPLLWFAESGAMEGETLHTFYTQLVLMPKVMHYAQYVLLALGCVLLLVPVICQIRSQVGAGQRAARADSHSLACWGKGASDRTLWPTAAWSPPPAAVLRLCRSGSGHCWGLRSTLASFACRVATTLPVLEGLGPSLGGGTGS
UniProt Q14973, sequence (Q14973 whole entry, the tested form may be a part): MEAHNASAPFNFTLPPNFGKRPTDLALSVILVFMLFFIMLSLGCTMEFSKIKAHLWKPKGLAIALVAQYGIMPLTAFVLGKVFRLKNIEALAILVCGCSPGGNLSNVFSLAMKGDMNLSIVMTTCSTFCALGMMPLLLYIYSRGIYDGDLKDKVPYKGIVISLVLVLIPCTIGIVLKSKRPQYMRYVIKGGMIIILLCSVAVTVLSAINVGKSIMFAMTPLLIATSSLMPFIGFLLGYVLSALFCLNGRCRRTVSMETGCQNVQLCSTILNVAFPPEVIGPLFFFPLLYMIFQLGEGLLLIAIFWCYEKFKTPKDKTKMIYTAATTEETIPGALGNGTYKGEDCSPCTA

Row | Substance | fold binding over GFP control cells [1] | fold binding over GFP control cells [2] | response [3]
1 | Yeast-derived nanoparticles containing L protein (bio-nanocapsules, BNCs) | 9.2 fold |  | 
2 | Biotinylated Myr47 (myristoylated pre-S1 peptide) | 2.8 fold | 3.4 fold | 
3 | SR-B1-GFP fusion protein (scavenger receptor class B type 1) (from UniProt Q8WTV0) K156A |  |  | 5.8 FI × 10^3
4 | SR-B1-GFP fusion protein (scavenger receptor class B type 1) (from UniProt Q8WTV0) T175A |  |  | 5.7 FI × 10^3
5 | SR-B1-GFP fusion protein (scavenger receptor class B type 1) (from UniProt Q8WTV0) K151A |  |  | 10 FI × 10^3
6 | SR-B1-GFP fusion protein (scavenger receptor class B type 1) (from UniProt Q8WTV0) M441A; L448A; L455A |  |  | 10 FI × 10^3
7 | SR-B1-GFP fusion protein (scavenger receptor class B type 1) (from UniProt Q8WTV0) S112F |  |  | 5.3 FI × 10^3
